The source of these data is patent US20140018302A1 (SALK INSTITUTE FOR BIOLOGICAL STUDIES INTELLECTUAL PROPERTY …, published 2014).

Positions of bridges follow the written chain, without caps; N, C: chain ends. Non-standard residues stand in square brackets, D forms with d. No end group written: not given here. *: point of attachment. FITC = O=C1OC2(c3ccc(O)cc3Oc3cc(O)ccc32)c2ccc(NC(=S)*)cc21; R8 = C=CCCCCCC[C@@](C)(N)C(=O)O; S5 = C=CCCC[C@](C)(N)C(=O)O

Experiment [1] deals with T1, recombinant full-length HDMX (UniProt O15151 1-490).
T1 construct: mature; Full-length protein after TEV cleavage of the tags; also called HDM4
T1 sequence (looked up): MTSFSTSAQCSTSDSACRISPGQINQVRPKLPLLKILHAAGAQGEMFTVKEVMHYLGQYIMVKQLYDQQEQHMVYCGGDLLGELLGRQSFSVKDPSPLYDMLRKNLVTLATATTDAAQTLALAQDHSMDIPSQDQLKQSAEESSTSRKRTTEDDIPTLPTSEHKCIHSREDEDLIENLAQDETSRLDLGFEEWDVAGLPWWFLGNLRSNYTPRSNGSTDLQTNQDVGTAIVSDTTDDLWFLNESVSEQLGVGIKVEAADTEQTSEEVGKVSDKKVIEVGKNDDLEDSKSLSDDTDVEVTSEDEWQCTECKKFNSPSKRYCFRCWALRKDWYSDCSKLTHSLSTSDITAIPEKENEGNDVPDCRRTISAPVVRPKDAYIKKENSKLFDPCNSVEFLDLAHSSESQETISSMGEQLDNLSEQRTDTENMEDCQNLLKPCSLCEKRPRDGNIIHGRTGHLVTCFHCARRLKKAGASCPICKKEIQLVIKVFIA
Description: fluorescence polarization, 25 nM FITC-peptide. The method, then: Fluorescence polarization was then measured at equilibrium on a SpectraMax M5 microplate reader (Molecular Devices).
(Fluorescence polarisation rises when a labelled molecule tumbles more slowly, as on binding a larger partner.)

The target of experiment [2] is T2, native HDMX (intracellular, in SJSA-X, JEG-3 and MCF-7 cells) (UniProt O15151 1-490).
T2 construct: mature; Cellular protein in co-immunoprecipitation experiments; In SJSA-X cells it is overexpressed by engineering; also called intracellular HDMX
T2 sequence (looked up): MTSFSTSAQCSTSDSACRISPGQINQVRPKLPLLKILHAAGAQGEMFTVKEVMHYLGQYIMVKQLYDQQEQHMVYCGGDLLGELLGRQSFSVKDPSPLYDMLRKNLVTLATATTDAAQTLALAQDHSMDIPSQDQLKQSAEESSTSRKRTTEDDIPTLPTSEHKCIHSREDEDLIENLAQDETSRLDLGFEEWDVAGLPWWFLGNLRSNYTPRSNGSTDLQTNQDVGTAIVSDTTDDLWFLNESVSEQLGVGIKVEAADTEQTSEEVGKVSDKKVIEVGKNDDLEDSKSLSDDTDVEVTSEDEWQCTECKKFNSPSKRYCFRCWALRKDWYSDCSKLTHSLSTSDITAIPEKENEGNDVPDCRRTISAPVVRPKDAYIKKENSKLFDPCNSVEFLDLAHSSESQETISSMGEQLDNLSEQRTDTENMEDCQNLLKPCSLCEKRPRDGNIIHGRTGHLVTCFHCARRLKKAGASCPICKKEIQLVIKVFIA
Description: anti-FITC pull-down from SJSA-X cells, HDMX western.

Experiment [3] deals with T3, native HDM2 (intracellular, in SJSA-X cells) (UniProt Q00987 1-491, limits assumed).
T3 construct: mature; Cellular protein in the anti-FITC pull-down; also called intracellular HDM2
Description: anti-FITC pull-down from SJSA-X cells, HDM2 western.

T3 sequence (Q00987 whole entry): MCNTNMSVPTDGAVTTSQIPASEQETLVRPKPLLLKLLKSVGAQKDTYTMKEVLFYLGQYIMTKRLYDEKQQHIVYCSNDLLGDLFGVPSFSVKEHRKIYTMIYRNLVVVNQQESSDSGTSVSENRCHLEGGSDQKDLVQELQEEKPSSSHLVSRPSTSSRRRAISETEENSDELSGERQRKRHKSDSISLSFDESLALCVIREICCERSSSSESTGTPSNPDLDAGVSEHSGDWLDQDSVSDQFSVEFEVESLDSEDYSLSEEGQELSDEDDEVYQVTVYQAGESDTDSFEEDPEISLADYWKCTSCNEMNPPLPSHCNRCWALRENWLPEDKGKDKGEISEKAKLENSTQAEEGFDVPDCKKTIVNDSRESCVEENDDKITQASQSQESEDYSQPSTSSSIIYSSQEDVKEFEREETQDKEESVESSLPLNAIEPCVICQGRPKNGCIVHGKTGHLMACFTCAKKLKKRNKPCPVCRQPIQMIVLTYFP

B1: FITC-WT-p53 14-29 (peptide)
peptide: {FITC}-LSQETFSDLWKLLPEN
notes: Unstapled wild-type peptide, FITC-labeled in the FP assay; also called wild type p53 peptide
With B1, the binding result in experiment [1] is “no binding (tested: 25 pM-100 nM protein)”.

B2: SAH-p53-8F19A (peptide)
peptide: QSQQTA[R8]NLWRLL[S5]QN
modifications: staple 7-14; not fully specified (N-terminus, C-terminus); also: N-terminal FITC in binding assays
notes: also called FITC-SAH-p53-8F19A
Take B2: the figures for the binding result in experiment [2], in experiment [3] and in experiment [1] were “no binding (tested: 15 uM peptide on cells)”, “no binding (tested: 15 uM peptide on cells)” and “no binding (tested: 25 pM-100 nM protein)”, respectively.
